We go through 9 molecules from patent US20250161478A1 (GLYKOS FINLAND, published 2025).

Where two headings read alike, the source gives them in different places. Bounds are passed on as bounds.

Common to all, as to test: cell-based or functional assay
In test [1] the target is T1, TYRP1 antigen on human melanoma cells (IGR-1, SK-MEL-30, SK-MEL-28) (human, UniProt P17643 25-537).
Test [2] deals with T1, TYRP1 antigen on human melanoma cells …. The source holds these as a separate data set.
Test [3] has as its target T2, CD33 on leukemia cell lines (HL-60, MOLM-13, KG-1, K-562) (UniProt P20138 18-364, limits assumed).
Test [4] has as its target T1, TYRP1 antigen on human melanoma cells …. This is another data set of the same source.
The target in test [5] is T2, CD33 on leukemia cell lines (HL-60, …). This is another data set of the same source.
Test [6] has the same target. This is another data set of the same source.
Test [7] addresses T1, TYRP1 antigen on human melanoma cells …. This is another data set of the same source.
For test [8] the target is unchanged. The source holds these as a separate data set.
Test [9] has the same target. This is another data set of the same source.

T2 sequence (P20138 18-364 limits assumed): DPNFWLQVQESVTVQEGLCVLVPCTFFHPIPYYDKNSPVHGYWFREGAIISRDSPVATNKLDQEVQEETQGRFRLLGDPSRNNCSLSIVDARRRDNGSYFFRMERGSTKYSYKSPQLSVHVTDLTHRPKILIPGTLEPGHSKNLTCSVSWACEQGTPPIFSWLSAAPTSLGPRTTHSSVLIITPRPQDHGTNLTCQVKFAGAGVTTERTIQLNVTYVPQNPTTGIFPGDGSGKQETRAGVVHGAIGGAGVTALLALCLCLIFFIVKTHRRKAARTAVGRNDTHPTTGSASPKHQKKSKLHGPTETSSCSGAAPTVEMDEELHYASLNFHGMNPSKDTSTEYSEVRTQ

B1: CHPeD (glycoconjugated chimeric TA99-DBCO-Val-Ser(GlcA)-EDA-PNU ADC), DAR 2 (antibody, human IgG1, kappa, V domains shown)
VH: EVQLQQSGAELVRPGALVKLSCKTSGFNIKDYFLHWVRQRPDQGLEWIGWINPDNGNTVYDPKFQGTASLTADTSSNTVYLQLSGLTSEDTAVYFCTRRDYTYEKAALDYWGQGTTVTVST
VL: IQMSQSPASLSASVGETVTITCRASGNIYNYLAWYQQKQGKSPHLLVYDAKTLADGVPSRFSGSGSGTQYSLKISSLQTEDSGNYYCQHFWSLPFTFGSGTKLEIKR
modifications: DBCO-Val-Ser(GlcA)-EDA-PNU on GalNAz of the trimmed Fc N-glycan; DAR 2
In the case of B1, in [1], the “IC50, cell viability (PrestoBlue), IGR-1 cells” value (“IC50 … IGR-1 cells” below) came to 1.4 nM; the “IC50, cell viability (PrestoBlue), SK-MEL-28 cells” value was 55 nM; the “IC50, cell viability (PrestoBlue), SK-MEL-30 cells” value (shortened to “IC50 … SK-MEL-30 cells”) was 5.7 nM.

B2: CHAuM (chimeric TA99-maleimidoacetyl-β-Ala-Val-Ser(Glc)-PAB-MMAU), DAR 6 (antibody, human IgG1, kappa, V domains shown)
VH: B1 VH
VL: B1 VL
modifications: AuM linker-payload on reduced interchain cysteine; AuM linker-payload (maleimidoacetyl-β-Ala-Val-Ser(Glc)-PAB-MMAU) on reduced interchain cysteines; DAR 6 in all
As to B2, in test [2], the “IC50 … IGR-1 cells” value was determined as 2.2 nM; the “IC50, cell viability (PrestoBlue), SK-MEL-28 cells” value was over 300 nM; the “IC50 … SK-MEL-30 cells” value stood at 48 nM.

B3: GMAuM (gemtuzumab-maleimidoacetyl-β-Ala-Val-Ser(Glc)-PAB-MMAU), DAR 8 (antibody, human IgG4 S228P, kappa, V domains shown)
VH: EVQLVQSGAEVKKPGSSVKVSCKASGYTITDSNIHWVRQAPGQSLEWIGYIYPYNGGTDYNQKFKNRATLTVDNPTNTAYMELSSLRSEDTAFYYCVNGNPWLAYWGQGTLVTVSS
VL: DIQLTQSPSTLSASVGDRVTITCRASESLDNYGIRFLTWFQQKPGKAPKLLMYAASNQGSGVPSRFSGSGSGTEFTLTISSLQPDDFATYYCQQTKEVPWSFGQGTKVEVKR
modifications: AuM linker-payload on reduced interchain cysteine; AuM linker-payload (maleimidoacetyl-β-Ala-Val-Ser(Glc)-PAB-MMAU) on reduced interchain cysteines; DAR 8.0 in all
Turning to B3, in test [3], the “IC50, cytotoxicity, HL-60 cells, 5 days” value came out at 0.583 nM; the “IC50, cytotoxicity, K-562 (low CD33) cells, 3 days” value was found to be 241 nM; the “IC50, cytotoxicity, MOLM-13 cells, 3 days” value came to 0.206 nM.

B4: FLCPeMcv (cysteine engineered flanvotumab HC N299C conjugated with MA-caproyl-Val-Cit-PAB-EDA-PNU), DAR 1.4 (antibody, human IgG1, kappa)
heavy: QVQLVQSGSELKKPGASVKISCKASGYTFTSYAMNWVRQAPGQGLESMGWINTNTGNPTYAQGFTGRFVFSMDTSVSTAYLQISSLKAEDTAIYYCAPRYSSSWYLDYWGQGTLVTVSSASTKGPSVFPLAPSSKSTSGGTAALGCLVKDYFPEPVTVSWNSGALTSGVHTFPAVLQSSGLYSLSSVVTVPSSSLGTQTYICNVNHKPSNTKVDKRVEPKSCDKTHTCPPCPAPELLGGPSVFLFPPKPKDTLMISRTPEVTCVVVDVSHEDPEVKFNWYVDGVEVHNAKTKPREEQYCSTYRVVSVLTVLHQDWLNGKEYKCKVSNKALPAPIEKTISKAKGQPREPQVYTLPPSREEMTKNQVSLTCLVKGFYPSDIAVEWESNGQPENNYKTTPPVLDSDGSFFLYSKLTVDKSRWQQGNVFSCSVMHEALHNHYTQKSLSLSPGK
light: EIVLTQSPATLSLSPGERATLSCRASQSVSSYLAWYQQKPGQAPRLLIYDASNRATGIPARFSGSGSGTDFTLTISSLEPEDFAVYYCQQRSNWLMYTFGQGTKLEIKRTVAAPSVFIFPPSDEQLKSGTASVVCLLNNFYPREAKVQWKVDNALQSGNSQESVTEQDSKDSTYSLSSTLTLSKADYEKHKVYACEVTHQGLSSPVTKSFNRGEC
modifications: PeMcv linker-payload (MA-caproyl-Val-Cit-PAB-EDA-PNU) on the engineered cysteine (N299C); DAR 1.4
For the molecule B4, in test [4], the “IC50 … IGR-1 cells” value fell in the range of 0.414 to 0.716 nM and the “IC50 … SK-MEL-30 cells” value fell in the range of 2.8 to 4 nM.

B5: LNCAuM (cysteine engineered lintuzumab HC N296C-maleimidoacetyl-β-Ala-Val-Ser(Glc)-PAB-MMAU), DAR 1.7 (antibody, human IgG1, kappa, V domains shown)
VH: QVQLVQSGAEVKKPGSSVKVSCKASGYTFTDYNMHWVRQAPGQGLEWIGYIYPYNGGTGYNQKFKSKATITADESTNTAYMELSSLRSEDTAVYYCARGRPAMDYWGQGTLVTVSS
VL: DIQMTQSPSSLSASVGDRVTITCRASESVDNYGISFMNWFQQKPGKAPKLLIYAASNQGSGVPSRFSGSGSGTDFTLTISSLQPDDFATYYCQQSKEVPWTFGQGTKVEIKR
modifications: AuM linker-payload (maleimidoacetyl-β-Ala-Val-Ser(Glc)-PAB-MMAU) on the engineered cysteine (N296C); DAR 1.7
In the case of B5, the “IC50, cytotoxicity, HL-60 cells, 5 days” value in [5] came to 16 nM.

B6: LNCAuMb (cysteine engineered lintuzumab HC N296C conjugated with branched N-MAL-N-bis(Peg2)-Val-Ser(Glc)-PAB-MMAU), DAR 3.3 (antibody, human IgG1, kappa, V domains shown)
VH: B5 VH
VL: B5 VL
modifications: branched AuMb linker-payload (N-MAL-N-bis(Peg2)-Val-Ser(Glc)-PAB-MMAU) on the engineered cysteine (N296C); DAR 3.3
As for B6, in test [6], the “IC50, cytotoxicity, HL-60 cells, 5 days” value amounted to 2.2 nM.

B7: FLCPeMala (cysteine engineered flanvotumab HC N299C conjugated with MA-Ac-β-Ala-EDA-PNU), DAR 2.0 (antibody, human IgG1, kappa)
heavy: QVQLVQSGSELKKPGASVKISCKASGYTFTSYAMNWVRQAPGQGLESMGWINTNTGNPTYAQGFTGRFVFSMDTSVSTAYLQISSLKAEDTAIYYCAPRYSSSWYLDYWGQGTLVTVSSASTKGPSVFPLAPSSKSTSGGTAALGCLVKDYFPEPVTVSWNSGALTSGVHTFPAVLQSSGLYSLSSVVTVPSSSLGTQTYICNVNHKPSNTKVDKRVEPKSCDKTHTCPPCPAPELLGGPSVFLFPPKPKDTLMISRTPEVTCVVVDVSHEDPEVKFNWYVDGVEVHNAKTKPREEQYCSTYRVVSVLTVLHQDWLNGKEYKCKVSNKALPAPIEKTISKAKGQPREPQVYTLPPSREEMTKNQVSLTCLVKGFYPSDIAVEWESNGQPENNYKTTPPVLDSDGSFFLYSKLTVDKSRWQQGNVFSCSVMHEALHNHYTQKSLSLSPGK
light: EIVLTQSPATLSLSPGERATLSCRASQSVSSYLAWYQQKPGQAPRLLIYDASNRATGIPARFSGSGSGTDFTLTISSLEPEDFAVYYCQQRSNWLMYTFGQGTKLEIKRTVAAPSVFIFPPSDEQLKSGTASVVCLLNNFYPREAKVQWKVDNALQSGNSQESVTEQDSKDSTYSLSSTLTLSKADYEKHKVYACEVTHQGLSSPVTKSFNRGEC
modifications: PeMala linker-payload (maleimidoacetyl-β-Ala-EDA-PNU) on the engineered cysteine (N299C); DAR 2.0
Turning to B7, in test [7], the “IC50 … IGR-1 cells” value came out at 0.649 nM.

B8: FLCPeMa (cysteine engineered flanvotumab HC N299C conjugated with MA-Ac-EDA-PNU), DAR 1.7 (antibody, human IgG1, kappa)
heavy: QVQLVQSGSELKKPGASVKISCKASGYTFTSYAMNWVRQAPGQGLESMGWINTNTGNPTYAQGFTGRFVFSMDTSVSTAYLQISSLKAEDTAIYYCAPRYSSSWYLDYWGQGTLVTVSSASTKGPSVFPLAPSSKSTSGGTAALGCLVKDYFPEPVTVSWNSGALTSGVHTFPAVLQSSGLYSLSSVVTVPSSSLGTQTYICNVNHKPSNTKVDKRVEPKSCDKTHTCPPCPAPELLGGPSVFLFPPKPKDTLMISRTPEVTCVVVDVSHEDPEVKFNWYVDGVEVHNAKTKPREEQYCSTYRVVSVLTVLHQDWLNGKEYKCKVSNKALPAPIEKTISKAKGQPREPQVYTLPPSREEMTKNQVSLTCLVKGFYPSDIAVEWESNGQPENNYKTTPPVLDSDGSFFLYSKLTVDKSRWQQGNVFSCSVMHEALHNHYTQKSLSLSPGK
light: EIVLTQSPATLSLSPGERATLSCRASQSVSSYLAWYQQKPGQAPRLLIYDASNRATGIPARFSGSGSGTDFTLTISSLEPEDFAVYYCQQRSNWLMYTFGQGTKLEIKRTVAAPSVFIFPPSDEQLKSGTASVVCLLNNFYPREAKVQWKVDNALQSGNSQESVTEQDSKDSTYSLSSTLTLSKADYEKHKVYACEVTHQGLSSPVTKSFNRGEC
modifications: PeMa linker-payload (maleimidoacetyl-EDA-PNU) on the engineered cysteine (N299C); DAR 1.7
As to B8, in [8], the “IC50 … IGR-1 cells” value turned out to be 1.2 nM and the “IC50 … SK-MEL-30 cells” value worked out at 22 nM.

B9: FLCPeMg (cysteine engineered flanvotumab HC N299C conjugated with MA-Ac-β-Ala-VS(GlcA)-EDA-PNU), DAR 2.2 (antibody, human IgG1, kappa)
heavy: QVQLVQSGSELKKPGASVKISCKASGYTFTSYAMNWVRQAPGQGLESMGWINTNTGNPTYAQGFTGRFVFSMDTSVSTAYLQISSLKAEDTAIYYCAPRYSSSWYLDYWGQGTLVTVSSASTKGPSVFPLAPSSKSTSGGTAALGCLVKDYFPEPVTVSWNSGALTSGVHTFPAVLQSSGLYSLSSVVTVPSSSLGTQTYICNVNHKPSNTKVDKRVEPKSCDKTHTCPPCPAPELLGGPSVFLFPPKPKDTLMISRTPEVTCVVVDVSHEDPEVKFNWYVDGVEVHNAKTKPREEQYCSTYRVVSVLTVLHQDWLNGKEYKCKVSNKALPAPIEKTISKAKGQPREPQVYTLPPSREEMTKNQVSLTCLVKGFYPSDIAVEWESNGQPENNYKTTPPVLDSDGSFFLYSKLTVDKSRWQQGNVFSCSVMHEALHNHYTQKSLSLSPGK
light: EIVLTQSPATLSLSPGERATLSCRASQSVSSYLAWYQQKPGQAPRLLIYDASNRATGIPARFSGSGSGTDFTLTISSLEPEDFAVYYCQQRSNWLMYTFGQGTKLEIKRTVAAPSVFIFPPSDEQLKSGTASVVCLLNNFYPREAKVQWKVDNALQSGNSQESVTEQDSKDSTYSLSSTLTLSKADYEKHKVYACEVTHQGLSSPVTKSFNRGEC
modifications: PeMg linker-payload (maleimidoacetyl-β-Ala-Val-Ser(GlcA)-EDA-PNU) on the engineered cysteine (N299C); DAR 2.2
Turning to B9, in test [9], the “IC50 … IGR-1 cells” value is 0.417 to 0.484 nM and the “IC50 … SK-MEL-30 cells” value fell in the range of 4.3 to 10 nM.
